Experimental data: patent US20240368286A1 (SHANGHAI JMT BIO TECHNOLOGY, published 2024)
Numbering of substitutions follows the chain as printed.

T1: Human GFRAL-His protein (human, UniProt Q6UXV0 19-351)
T1 construct: also called human GFRAL-His fusion protein; not shown: His tag
T1 sequence (looked up): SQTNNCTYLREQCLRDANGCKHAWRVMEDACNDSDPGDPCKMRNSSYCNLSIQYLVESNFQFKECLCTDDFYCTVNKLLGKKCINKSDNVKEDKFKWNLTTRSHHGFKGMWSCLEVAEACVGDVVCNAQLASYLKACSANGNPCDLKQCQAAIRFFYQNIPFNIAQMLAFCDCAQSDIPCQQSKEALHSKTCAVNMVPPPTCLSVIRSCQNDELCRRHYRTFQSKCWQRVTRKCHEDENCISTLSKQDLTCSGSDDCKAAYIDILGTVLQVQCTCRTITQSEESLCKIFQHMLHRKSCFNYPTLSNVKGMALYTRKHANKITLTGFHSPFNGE

T2: Human GFRAL (hGFRAL) on HEK293 reporter cells with human RET (human, UniProt Q6UXV0 19-394)
T2 sequence (looked up): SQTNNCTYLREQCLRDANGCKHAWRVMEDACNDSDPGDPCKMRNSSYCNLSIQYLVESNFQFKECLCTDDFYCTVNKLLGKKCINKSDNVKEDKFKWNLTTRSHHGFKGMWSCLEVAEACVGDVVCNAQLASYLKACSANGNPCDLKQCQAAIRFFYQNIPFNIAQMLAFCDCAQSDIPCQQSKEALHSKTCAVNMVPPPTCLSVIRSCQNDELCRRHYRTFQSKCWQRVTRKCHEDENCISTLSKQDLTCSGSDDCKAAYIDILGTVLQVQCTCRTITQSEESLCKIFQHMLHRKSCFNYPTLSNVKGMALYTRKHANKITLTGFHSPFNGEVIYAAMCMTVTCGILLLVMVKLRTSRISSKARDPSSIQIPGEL

T3: Mouse GFRAL (mGFRAL) on HEK293 reporter cells with mouse RET (mouse, UniProt Q6SJE0 20-393)
T3 sequence (looked up): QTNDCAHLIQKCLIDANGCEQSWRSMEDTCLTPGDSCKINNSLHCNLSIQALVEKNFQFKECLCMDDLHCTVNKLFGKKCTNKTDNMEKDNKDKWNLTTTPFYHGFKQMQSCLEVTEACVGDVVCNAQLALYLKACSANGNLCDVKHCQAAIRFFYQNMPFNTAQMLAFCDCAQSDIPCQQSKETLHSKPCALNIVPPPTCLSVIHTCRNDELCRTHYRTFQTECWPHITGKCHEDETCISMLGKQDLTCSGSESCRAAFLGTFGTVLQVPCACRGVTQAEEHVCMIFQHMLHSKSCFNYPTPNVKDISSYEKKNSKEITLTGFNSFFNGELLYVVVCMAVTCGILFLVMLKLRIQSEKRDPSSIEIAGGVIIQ

B1: 33B12 (antibody, V domains shown)
VH: QVQLQQPGTELVKPGASVKLSCKASGYTFTRNWMHWLKQRPGQGLEWIGEIDPSDSYTHYNQKFKGKATLTVEMSSSTAYMQLRSLTSEDSAVYYCARVGNYDNGTDRLYAMDYWGQGTSVTVSS
VL: DIVLTQSPASLAVSLGQRATISCRASESVDNFGNTFLHWFRQKPGQPPKLLIYRASNLESGIPARFSGSGSRTDFTLTINPVEADDVATYYCQQNNEDPWTFGGGTKLEIK
notes: Murine hybridoma antibody, purified
B2: 36D1 (antibody, V domains shown)
VH: B1 VH with L11F, E73D, M74K, R84S, T106K
VL: B1 VL
notes: as for B1
B3: 82G8 (antibody, V domains shown)
VH: QVQLKESGPGLVAPSQSLSITCTVSGFSLTGHGVNWVRQPPGKGLEWLGMIWGDGYTDYNSALKSRLSISKDNSKSQVFLKMNSLQTDDTATYYCARDTYGRTYDYAMDYWGQGTSVTVSS
VL: B1 VL with T20A, F32Y, T35S, L37M, F40Y, R41Q, N95S, W100R
notes: as for B1
B4: 61G8 (antibody, V domains shown)
VH: QVQLKESGPGLVAPSQSLSITCTVSGFSLTGYGVNWVRQSPGKGLEWLGMIWGDGTTDYNSALKSRLTIRKDNSKSQVFLRMNSLQTDDTARYYCARDPKYNYGYAMDYWGQGTSVTVSS
VL: DIVLTQAPGSLAVSLGQRATISCRASESVDNFGNSFMHWYQQKPGQSPKLLIYRASNLESGIPARFSGSGSRTDFTLTINPVEADDVATYYCQQTNEEPYTFGGGTKLEIE
notes: as for B1
B5: 96C12 (antibody, V domains shown)
VH: RVQLRESGPGLVAPSQSLSITCTVSGFSLTGYSVNWVRQPPGKGLEWLGMIWGDGSTDYNSALKSRLSISKDNSKSQVFLKMNSLQTDDTARYYCARDRDYRYDGGYIMDSWGQGTSVTVSS
VL: B4 VL with A7S, M37L, S47P, I62V, N80S, T95S, E98D, Y100R, E111R
notes: as for B1
B6: 26D7H1aL2a (antibody, V domains shown)
VH: QVQLVQSGAEVKKPGASVKVSCKASGYTFTDYGMNWVRQAPGQGLEWMGWINTYTGEPTYADDFKDRVTMTTDTSTSTAYMELRSLRSDDTAVYYCARRYGYDAGIDAWGQGTLVTVSS
VL: EIVLTQSPGTLSLSPGERATLSCRASESVDSYGNNLMHWYQQKPGQAPRLLIYLASYLESGVPDRFSGSGSGTDFTLTISRLEPEDFATYYCQQNNESPWTFGQGTKVEIK
B7: 26D7H2aL2a (antibody, V domains shown)
VH: B6 VH with A24V, M48V, V68F, M70F, T72L, Y95F
VL: B6 VL
B8: 26D7H2dL2a (antibody, V domains shown)
VH: B6 VH with V20I, E46K, M70F, T72L, T74A
VL: B6 VL
B9: 26D7H4aL4a (antibody, V domains shown)
VH: QIQLVQSGAEVKKPGASVKISCKVSGYTFTDYGMNWVRQTPGQGLKWVGWINTYTGEPTYADDFKDRFTFTLDASTSTAYLEIRSLRSDDTAVYFCARRYGYDAGIDAWGQGTLLTVSS
VL: B6 VL with L13V, L21I, D64A, G72R, L82V, V108L
B10: 26D7H5eL5c (antibody, V domains shown)
VH: QVQLVQSGSELKKPGASVKVSCKVSGYTFTDYGMNWVRQAPGQGLEWVGWINTYTGEPTYADDFKDRFVFSLDTSVSTAYLQISSLKAEDTAVYYCARRYGYDAGIDAWGQGTTVTVSS
VL: DIVLTQSPASLAVSPGQRATITCRASESVDSYGNNLMHWYQQKPGQPPKLLIYLASYLESGVPARFSGSGSGTDFTLTINPVEANDTANYYCQQNNESPWTFGGGTKLEIK
B11: 26D7H5fL5c (antibody, V domains shown)
VH: B10 VH with V2I, V20I, T74A
VL: B10 VL
B12: 26D7-mVH + mVL (antibody, V domains shown)
VH: QIQLVQSGPELKKPGETVKISCKVSGYTFTDYGMNWVKQTPGKDLKWVGWINTYTGEPTYADDFKDRFAFSLEASASTAYLQINNLKNEDTATYFCARRYGYDAGIDCWGQGTTLTVSS
VL: B10 VL with D1N, A9P, P15L, T22S, G72R, N80D, N85D, T87A, N89T, S98D
B13: 2D4H6aL6b (antibody, V domains shown)
VH: EVQLVESGGGLVKPGGSLRLSCAASGFTFSSFVMSWVRQAPGKGLEWVASITSGGTTFYPESVRGRFTISRDNAKNTLYLQMSSLRAEDTAVYYCARGPPQFSSLSMDYWGQGTTVTVSS
VL: DIQMTQSPSSLSASVGDRVTITCKASQNVGTAVSWFQQKPGKAPKLLIYSASNRYTGVPSRFSGSGSGTDFTLTISSLQPEDFATYYCQQYSSLFTFGGGTKLEIK
B14: 2D4H6cL6c (antibody, V domains shown)
VH: B13 VH with E61D, R64K, K75R, T77I
VL: B13 VL with V19I, S60D
B15: 2D4-mVH + mVL (antibody, V domains shown)
VH: EVNLVESGGGLVKPGGPLKLSCAASGFTFSSFVMSWVRQTPEKRLEWVASITSGGTTFYPDSVKGRFTISRDNARNILYLQMSNLRSGDTAMYYCARGPPQFSSLSMDYWGQGTSVTVSS
VL: DIVMTQSQKFMSTSVGDRITITCKASQNVGTAVSWFQQKPGQVPKLLIYSASNRYTGVPDRFTGSGSGTEFTLTISNIQSEDLADYFCQQYSSLFTFGSGTKLEIK
B16: 90E1 (antibody, V domains shown)
VH: EVQLQQSGPELVKPGASVKMSCKASGYTFTSYVIHWVKQEPGQGLEWIGYINPYNDDINYNEKFKGKATLTSDKSSSTAYMEFSSLTSEDSAVYYCARYDYDWYFDVWGAGTAVTVSS
VL: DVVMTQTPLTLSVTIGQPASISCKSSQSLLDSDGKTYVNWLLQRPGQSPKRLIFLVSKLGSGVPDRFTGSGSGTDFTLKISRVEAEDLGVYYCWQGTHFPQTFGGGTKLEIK

Molecular target: Cynomolgus monkey GFRAL-His protein (cynomolgus monkey)
Assay: ELISA, antigen coated on plate, purified antibody titrated, HRP anti-mouse IgG detection
Description: (§1) The ELISA assay had the following protocols. Human GFRAL-His protein, cynomolgus monkey GFRAL-His protein, or mouse GFRAL-Fc protein were coated on 96-well plates, and after blocking the wells with PBS/1% BSA solution, the hybridoma supernatant or purified antibodies were added to the reaction wells. After incubation for 1 hour at room temperature, HRP-labeled anti-mouse IgG (Fab region) antibody was added to the reaction wells to incubate for an additional hour at room temperature. After the substrate and stop solution were added successively, the OD₄₅₀ values were read. The OD₄₅₀ values were used to verify and assess the binding ability of the antibodies to the GFRAL proteins.

Row | Binder | EC50 [nM]
1 | B1 | 0.08
2 | B2 | 0.07
3 | B3 | 0.04
4 | B4 | 0.08
5 | B5 | 0.03

Molecular target: T1, Human GFRAL-His protein
Assay: as above
Description: as §1

Row | Binder | EC50 [nM]
6 | B1 | 0.06
7 | B2 | 0.18
8 | B3 | 0.03
9 | B4 | 0.07
10 | B5 | 0.03

Molecular target: T2, Human GFRAL (hGFRAL) on HEK293 reporter …
Assay: cell-based or functional assay

Row | Binder | IC50 (nM), luciferase reporter gene assay, Human GFRAL/human RET [nM]
11 | B6 | 2.6
12 | B7 | 7.6
13 | B8 | 6.5
14 | B9 | 5.7
15 | B10 | 8.3
16 | B11 | 8.9
17 | B12 | 8.7
18 | B13 | 24.4
19 | B14 | 22.5
20 | B15 | 23.8

Molecular target: T3, Mouse GFRAL (mGFRAL) on HEK293 reporter …
Assay: cell-based or functional assay

Row | Binder | IC50 (nM), luciferase reporter gene assay, Mouse GFRAL/mouse RET [nM]
21 | B6 | 7.7
22 | B7 | 1.6
23 | B8 | 3
24 | B9 | 0.1
25 | B10 | 0.7
26 | B11 | 0.4
27 | B12 | 0.7
28 | B13 | 1.4
29 | B14 | 1.3
30 | B15 | 1.4

Molecular target: T2, Human GFRAL (hGFRAL) on HEK293 reporter …
Assay: cell-based or functional assay
Remark: another data set of the same source

Row | Binder | IC50 (nM), luciferase reporter gene assay, Human GFRAL/human RET [nM]
31 | B1 | 7.04
32 | B2 | 6.89
33 | B3 | 5.67
34 | B4 | 11.6
35 | B5 | 6.42
36 | B16 | 81.4

Molecular target: T3, Mouse GFRAL (mGFRAL) on HEK293 reporter …
Assay: cell-based or functional assay
Remark: another data set of the same source

Row | Binder | IC50 (nM), luciferase reporter gene assay, Mouse GFRAL/mouse RET [nM]
37 | B1 | > 694
38 | B2 | > 694
39 | B3 | > 694
40 | B4 | > 694
41 | B5 | > 694
42 | B16 | 75.5
